The results in this text go back to patent US20220257784A1 (Bicycle, published 2022).

The chains are these.
B1: BCY13129 (peptide)
peptide: [Mpa][Hyp]LVNPLCL[Dip]P[dD]WTC[dK]-NH2
modifications: linker (positions not given here) via TATA; not fully specified (bridges)
notes: Bicyclic peptide cyclised with TATA; the first reactive group is 3-mercaptopropionic acid in place of cysteine
B2: BCY13133 (peptide)
peptide: A[hArg]DC[Hyp]LVNPLCLHP[dD]W[hArg][Cysteamide]
modifications: linker (positions not given here) via TATA; not fully specified (bridges)
notes: Bicyclic peptide cyclised with TATA; the third reactive group is cysteamine in place of cysteine

Starred links: 1 amine or outer side, 2 acyl side, 3 side chain; linkers in the order of their positions; H or OH if unused. Positions of bridges follow the written chain, without caps; N, C: chain ends. Non-standard residues stand in square brackets, D forms with d. No end group written: not given here. TATA = O=C(CC[*:1])N1CN(C(=O)CC[*:2])CN(C(=O)CC[*:3])C1; Ala(4-thiazolyl) = N[C@@H](Cc1cscn1)C(=O)O; Dip = N[C@H](C(=O)O)C(c1ccccc1)c1ccccc1; 1Nal = N[C@@H](Cc1cccc2ccccc12)C(=O)O; His(τ-Me) = Cn1cnc(C[C@H](N)C(=O)O)c1; d1Nal = N[C@H](Cc1cccc2ccccc12)C(=O)O; Hyp = O=C(O)[C@@H]1C[C@@H](O)CN1; hArg = N=C(N)NCCCC[C@H](N)C(=O)O; 2Thi = N[C@@H](Cc1cccs1)C(=O)O; 3Thi = N[C@@H](Cc1ccsc1)C(=O)O; Aad = N[C@@H](CCCC(=O)O)C(=O)O; His3Me = N3-methyl-L-histidine; Cysteamide = C(CS[*:3])N[*:1]; Cba = N[C@@H](CC1CCC1)C(=O)O; dNle = CCCC[C@@H](N)C(=O)O; NMeA = CN[C@@H](C)C(=O)O; Nle = CCCC[C@H](N)C(=O)O; Mpa = O=C(O)CCS

The target in the first test is T1, human EphA2 (human, UniProt P29317 25-534, limits assumed).
T1 construct: also called Eph receptor tyrosine kinase A2
T1 sequence (P29317 25-534 limits assumed): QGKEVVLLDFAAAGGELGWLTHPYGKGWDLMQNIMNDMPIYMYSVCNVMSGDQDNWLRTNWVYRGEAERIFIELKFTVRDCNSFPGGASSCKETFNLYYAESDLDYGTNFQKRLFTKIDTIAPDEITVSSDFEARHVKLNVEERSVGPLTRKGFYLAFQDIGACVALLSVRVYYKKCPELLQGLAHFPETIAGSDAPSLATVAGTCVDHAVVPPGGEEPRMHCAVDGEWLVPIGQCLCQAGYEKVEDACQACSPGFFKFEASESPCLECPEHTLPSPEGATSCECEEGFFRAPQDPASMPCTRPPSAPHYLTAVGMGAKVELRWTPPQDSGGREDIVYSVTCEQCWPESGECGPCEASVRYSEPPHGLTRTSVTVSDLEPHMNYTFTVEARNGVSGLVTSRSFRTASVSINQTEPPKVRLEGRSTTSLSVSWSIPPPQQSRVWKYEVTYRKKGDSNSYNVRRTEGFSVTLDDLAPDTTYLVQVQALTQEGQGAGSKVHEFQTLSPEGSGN
Description: fluorescence polarisation competition with tracer BCY90, human EphA2, mean of 8. As to the method:
(§1) Peptides without a fluorescent tag were tested in competition with a peptide with a fluorescent tag and a known Kd.
(§2) Peptides were diluted to an appropriate concentration in assay buffer as described in the direct binding assay with a maximum of 5% DMSO, then serially diluted 1 in 2. […] Measurements were conducted, however the gain was determined prior to the first measurement. Data analysis was in Systat Sigmaplot version 12.0 where the mP values were fit to a user defined cubic equation to generate a Ki value: […]
As a reminder, the Ki is a measure of affinity in units of concentration, obtained from inhibition or displacement. A higher Ki goes with a looser hold on the target. For C[Hyp]LVNPLCL[1Nal]P[dD]WTC-NH2 (linker 1-8-15 via TATA, Bicyclic peptide cyclised with TATA) [BCY13119], the Ki was determined as 2.64 nM.
For A[hArg]DC[Hyp]LVNPLCL[Dip]P[dD]WTC-NH2 (linker 4-11-18 via TATA, Bicyclic peptide cyclised with TATA) [BCY12859], the Ki was found to be 0.723 nM.
The molecule A[hArg]DC[Hyp]LVNPLCLHP[d1Nal]W[hArg]C-NH2 (linker 4-11-18 via TATA, Bicyclic peptide cyclised with TATA) [BCY13116] gave a Ki of 1.13 nM.
In turn, A[hArg]DC[Hyp]LVNPLCLEP[dD]WTC-NH2 (linker 4-11-18 via TATA, Bicyclic peptide cyclised with TATA) [BCY12856] returned a Ki of 4.63 nM.
As to [NMeA][hArg]DC[Hyp]LVNPLCLEP[dD]WTC-NH2 (linker 4-11-18 via TATA, Bicyclic peptide cyclised with TATA) [BCY13122], the affinity, expressed as Ki, was 7.8 nM.
Take A[hArg]DC[Hyp]LVNPLCL[1Nal]P[dD]W[hArg]C-NH2 (linker 4-11-18 via TATA, Bicyclic peptide cyclised with TATA) [BCY13117]: the affinity, expressed as Ki, was 1.12 nM. Compared with the last molecule, the Ki is about 7-fold lower.

A further test addresses T1, human EphA2. The test is described as follows: fluorescence polarisation competition with tracer BCY90, human EphA2, mean of 10. The method, then: as §1, §2
Background: In fluorescence polarisation assays a small probe gives low polarisation when free and higher when bound to something large.
For the molecule A[hArg]DC[Hyp]LVNPLCL[Dip]P[dD]W[hArg]C-NH2 (linker 4-11-18 via TATA, Bicyclic peptide cyclised with TATA) [BCY12866], the inhibitory constant (Ki) came to 0.244 nM. This counts as sub-nanomolar.

Another test deals with T1, human EphA2. The test is described as follows: fluorescence polarisation competition with tracer BCY90, human EphA2, mean of 6. As to the method:
as §1, §2
Regarding A[hArg]DC[Hyp]LVNPLCLEP[d1Nal]WTC-NH2 (linker 4-11-18 via TATA, Bicyclic peptide cyclised with TATA) [BCY13118], the inhibition constant Ki was 5.42 nM. This lies in the single-digit nanomolar range.
Take [NMeA][hArg]DC[Hyp]LVNPLCLHP[dD]W[hArg]C-NH2 (linker 4-11-18 via TATA, Bicyclic peptide cyclised with TATA) [BCY13121]: the Ki was 1.49 nM. This Ki is about 3.6-fold lower than that of the molecule before.
[dA]EDC[Hyp]LVNPLCLEP[dD]WTC-NH2 (linker 4-11-18 via TATA, Bicyclic peptide cyclised with TATA) [BCY13126] showed a Ki of 25.3 nM. Compared with the last molecule, the Ki is about 17-fold higher.
In turn, [dA][dA]DC[Hyp]LVNPLCLEP[dD]WTC-NH2 (linker 4-11-18 via TATA, Bicyclic peptide cyclised with TATA) [BCY13127] yielded a Ki of 14.9 nM.
Turning to A[hArg]DC[Hyp][Cba]VNPLCLHP[dD]W[hArg]C-NH2 (linker 4-11-18 via TATA, Bicyclic peptide cyclised with TATA) [BCY12862], the Ki turned out to be 1.22 nM.
With A[hArg]DC[Hyp]LVNPLCL[Ala(4-thiazolyl)]P[dD]W[hArg]C-NH2 (linker 4-11-18 via TATA, Bicyclic peptide cyclised with TATA) [BCY13919], affinity was put at a Ki of 2.1 nM.
Still for that read-out and setting: the figure for A[hArg]DC[Hyp]LVNPLCLEP[dD]W[hArg]C-NH2 (linker 4-11-18 via TATA, Bicyclic peptide cyclised with TATA) [BCY12854] is 9.34 nM.
A[hArg]DC[Hyp]LVNPLCLFP[dD]W[hArg]C-NH2 (linker 4-11-18 via TATA, Bicyclic peptide cyclised with TATA) [BCY13920]: the Ki is 0.641 nM.
For A[hArg]DC[Hyp]LVNPLCLNP[dD]W[hArg]C-NH2 (linker 4-11-18 via TATA, Bicyclic peptide cyclised with TATA) [BCY14047], the Ki is 3.88 nM.
Still for that read-out and setting: with A[hArg]DC[Hyp]LVNPLCLQP[dD]W[hArg]C-NH2 (linker 4-11-18 via TATA, Bicyclic peptide cyclised with TATA) [BCY14048] the figure was 4.1 nM; with A[hArg]DC[Hyp]LVNPLCLEP[dD]WTC[dA]-NH2 (linker 4-11-18 via TATA, Bicyclic peptide cyclised with TATA) [BCY12857], 16 nM; with A[hArg]DC[Hyp][Cba]VNPLCLEP[dD]WTC-NH2 (linker 4-11-18 via TATA, Bicyclic peptide cyclised with TATA) [BCY12863], 5.84 nM.
As for A[hArg]DC[Hyp]LVNPLCL[Aad]P[dD]W[hArg]C-NH2 (linker 4-11-18 via TATA, Bicyclic peptide cyclised with TATA) [BCY13132], the Ki came out at 7.08 nM.
Still for that read-out and setting: the figure for Ac-C[Hyp]LVNPLCL[Dip]P[dD]WTC[dK]-NH2 (linker 1-8-15 via TATA, Bicyclic peptide cyclised with TATA) [BCY13120] is 0.916 nM.
Regarding B1, the affinity, expressed as Ki, was 1.88 nM. Compared with the last molecule, the Ki is about 2.1-fold higher.
As for ADC[Hyp]LVNPLCLEP[dD]WTC-NH2 (linker 3-10-17 via TATA, Bicyclic peptide cyclised with TATA) [BCY13128], the affinity corresponds to a Ki of 16.1 nM. Compared with the last molecule, the Ki is about 8.6-fold higher.
The molecule B2 gave a Ki of 3.24 nM.
As to A[hArg]DC[Hyp]LVNPLCLHP[dD]WTC-NH2 (linker 4-11-18 via TATA, Bicyclic peptide cyclised with TATA) [BCY12855], the inhibition constant (Ki) turned out to be 5.55 nM.
A[hArg]DC[Hyp]LVNPLCLEP[dA]WTC-NH2 (linker 4-11-18 via TATA, Bicyclic peptide cyclised with TATA) [BCY12858] registered a Ki of 8.19 nM.
Same read-out and setting: the figure for A[hArg]DC[Hyp]LVNPLCL[Nle]P[dD]W[hArg]C-NH2 (linker 4-11-18 via TATA, Bicyclic peptide cyclised with TATA) [BCY13135] is 0.894 nM.
In turn, A[hArg]DC[Hyp]LVNPLCL[His(τ-Me)]P[dD]W[hArg]C-NH2 (linker 4-11-18 via TATA, Bicyclic peptide cyclised with TATA) [BCY13918] returned a Ki of 2.62 nM.
Still for that read-out and setting: with A[hArg]DC[Hyp]LVNPLCL[2Thi]P[dD]W[hArg]C-NH2 (linker 4-11-18 via TATA, Bicyclic peptide cyclised with TATA) [BCY13922] the figure was 1.14 nM; with A[hArg]DC[Hyp]LVNPLCL[3Thi]P[dD]W[hArg]C-NH2 (linker 4-11-18 via TATA, Bicyclic peptide cyclised with TATA) [BCY13923], 1.32 nM.
The molecule C[Hyp]LVNPLCL[Dip]P[dD]WTC-NH2 (linker 1-8-15 via TATA, Bicyclic peptide cyclised with TATA) [BCY12860] returned a Ki of 0.66 nM.
Ac-C[Hyp]LVNPLCLHP[dD]W[hArg]CL[dH]G[dK]-NH2 (linker 1-8-15 via TATA, Bicyclic peptide cyclised with TATA) [BCY13125] registered a Ki of 1.83 nM.
As for C[Hyp][Cba]VNPLCL[Dip]P[dD]WTC[dA]-NH2 (linker 1-8-15 via TATA, Bicyclic peptide cyclised with TATA) [BCY12865], the Ki turned out to be 0.857 nM.
Same read-out and setting: with A[hArg]DC[Hyp][Aad]VNPLCLHP[dD]W[hArg]C-NH2 (linker 4-11-18 via TATA, Bicyclic peptide cyclised with TATA) [BCY13130] the figure was 7.8 nM.
Same read-out and setting: the figure for [dA][hArg]DC[Hyp][Cba]VNPLCLEP[dD]WTC[dA]-NH2 (linker 4-11-18 via TATA, Bicyclic peptide cyclised with TATA) [BCY12864] is 9.29 nM; for [dA][hArg]DC[Hyp][Cba]VNPLCLEP[dA]WTC[dA]-NH2 (linker 4-11-18 via TATA, Bicyclic peptide cyclised with TATA) [BCY13123] it is 6.44 nM; for C[Hyp]LVNPLCLEP[dD]WTC[dA]-NH2 (linker 1-8-15 via TATA, Bicyclic peptide cyclised with TATA) [BCY12861] it is 21.7 nM.
Same read-out and setting: with A[hArg]DC[Hyp]LVNPLC[Aad]HP[dD]W[hArg]C-NH2 (linker 4-11-18 via TATA, Bicyclic peptide cyclised with TATA) [BCY13131] the figure was 27.1 nM.
The molecule A[hArg]DC[Hyp]LVNPLCLHP[dNle]W[hArg]C-NH2 (linker 4-11-18 via TATA, Bicyclic peptide cyclised with TATA) [BCY13134] came in with a Ki of 1.16 nM.
Still for that read-out and setting: with A[hArg]DC[Hyp]LVNPLCL[His3Me]P[dD]W[hArg]C-NH2 (linker 4-11-18 via TATA, Bicyclic peptide cyclised with TATA) [BCY13917] the figure was 1.72 nM; with [d1Nal][hArg]DC[Hyp][Cba]VNPLCLEP[dA]WTC[dA]-NH2 (linker 4-11-18 via TATA, Bicyclic peptide cyclised with TATA) [BCY13124], 7.62 nM.

For a further test, the target named is T1, human EphA2. The test is described as follows: fluorescence polarisation competition with tracer BCY90, human EphA2, mean of 38. As to the method: as §1, §2
In turn, A[hArg]DC[Hyp]LVNPLCLHP[dD]W[hArg]C-NH2 (linker 4-11-18 via TATA, Bicyclic peptide cyclised with TATA) [BCY9594] displayed a Ki of 1.44 nM.
